Reference: patent US20250368745A1 (published 2025)
Positions count from the first letter of the chain named. Names may count otherwise.

T1: human IL-18BP (human, UniProt O95998 31-194)
T1 construct: UniProt printed as 095998; also called hIL-18BP
T1 sequence: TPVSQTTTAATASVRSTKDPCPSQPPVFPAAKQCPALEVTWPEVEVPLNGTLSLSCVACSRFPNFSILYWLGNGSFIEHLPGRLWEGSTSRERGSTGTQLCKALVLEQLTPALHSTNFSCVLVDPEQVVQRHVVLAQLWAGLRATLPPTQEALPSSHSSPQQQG

T2: cynomolgus IL-18BP (cynomolgus monkey)
T2 construct: also called cyno IL-18BP; cyIL-18BP
T2 chain: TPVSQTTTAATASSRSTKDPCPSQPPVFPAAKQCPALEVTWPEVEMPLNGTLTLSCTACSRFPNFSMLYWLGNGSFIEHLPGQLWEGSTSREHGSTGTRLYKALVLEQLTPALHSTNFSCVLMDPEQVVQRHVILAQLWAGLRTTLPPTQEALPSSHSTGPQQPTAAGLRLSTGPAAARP

B1: SA301a HC-V100aD (antibody, name in Kabat numbering, V domains shown)
VH: QVQLQESGPGLVKPSQTLSLTCTVSGYSITSDYNSHWIRQPPGKGLEWIGYIHYSGSTNYNPSLKSRVTISRDTSKNQFSLKLSSVTAADTAVYYCARNYGSIYDNYFDYWGQGTLVTVSS
VL: EIVLTQSPATLSLSPGERATLSCSASSSVSYMYWYQQKPGQAPRPLIYRTSNLASGIPARFSGSGSGTDFTLTISSLEPEDFAVYYCQQYHSYPTFGGGTKVEIK
notes: IgG1 kappa
B2: SA301a HC-Y100S (antibody, V domains shown)
VH: B1 VH with Y104S, D105V
VL: B1 VL
B3: SA301a HC-Y100T (antibody, V domains shown)
VH: B1 VH with Y104T, D105V
VL: B1 VL
B4: SA301a HC-Y100D (antibody, V domains shown)
VH: B1 VH with Y104D, D105V
VL: B1 VL
B5: SA301a HC-Y100G (antibody, V domains shown)
VH: B1 VH with Y104G, D105V
VL: B1 VL
B6: SA301a HC-Y100L (antibody, V domains shown)
VH: B1 VH with Y104L, D105V
VL: B1 VL
B7: SA301a HC-Y100H (antibody, V domains shown)
VH: B1 VH with Y104H, D105V
VL: B1 VL
B8: SA301a HC-Y100M (antibody, V domains shown)
VH: B1 VH with Y104M, D105V
VL: B1 VL
B9: SA301a HC-Y100P (antibody, V domains shown)
VH: B1 VH with Y104P, D105V
VL: B1 VL
B10: SA301a HC-Y100R (antibody, V domains shown)
VH: B1 VH with Y104R, D105V
VL: B1 VL
B11: SA301a HC-V100aG (antibody, name in Kabat numbering, V domains shown)
VH: B1 VH with D105G
VL: B1 VL
notes: IgG1 kappa
B12: SA301a HC-Y100V (antibody, V domains shown)
VH: B1 VH with Y104V, D105V
VL: B1 VL
B13: SA301a HC-Y100N (antibody, V domains shown)
VH: B1 VH with Y104N, D105V
VL: B1 VL
B14: SA301a HC-Y100Q (antibody, V domains shown)
VH: B1 VH with Y104Q, D105V
VL: B1 VL
B15: SA301a HC-Y100F (antibody, V domains shown)
VH: B1 VH with Y104F, D105V
VL: B1 VL
B16: SA301a HC-Y100I (antibody, V domains shown)
VH: B1 VH with Y104I, D105V
VL: B1 VL
B17: SA301a HC-I99Q (antibody, name in Kabat numbering, V domains shown)
VH: B1 VH with I103Q, D105V
VL: B1 VL
notes: IgG1 kappa
B18: SA301a HC-V100aR (antibody, name in Kabat numbering, V domains shown)
VH: B1 VH with D105R
VL: B1 VL
notes: IgG1 kappa
B19: SA301a HC-V100aM (antibody, name in Kabat numbering, V domains shown)
VH: B1 VH with D105M
VL: B1 VL
notes: IgG1 kappa
B20: SA301a HC-V100aH (antibody, name in Kabat numbering, V domains shown)
VH: B1 VH with D105H
VL: B1 VL
notes: IgG1 kappa
B21: SA301a HC-V100aY (antibody, name in Kabat numbering, V domains shown)
VH: B1 VH with D105Y
VL: B1 VL
notes: IgG1 kappa
B22: SA301a HC-I99R (antibody, name in Kabat numbering, V domains shown)
VH: B1 VH with I103R, D105V
VL: B1 VL
notes: IgG1 kappa
B23: SA301a HC-V100aI (antibody, name in Kabat numbering, V domains shown)
VH: B1 VH with D105I
VL: B1 VL
notes: IgG1 kappa
B24: SA301a HC-V100aT (antibody, name in Kabat numbering, V domains shown)
VH: B1 VH with D105T
VL: B1 VL
notes: IgG1 kappa
B25: SA301a HC-N100bV (antibody, name in Kabat numbering, V domains shown)
VH: B1 VH with D105V, N106V
VL: B1 VL
notes: IgG1 kappa
B26: SA301a HC-V100aN (antibody, name in Kabat numbering, V domains shown)
VH: B1 VH with D105N
VL: B1 VL
notes: IgG1 kappa
B27: SA301a HC-I99V (antibody, name in Kabat numbering, V domains shown)
VH: B1 VH with I103V, D105V
VL: B1 VL
notes: IgG1 kappa
B28: SA301a HC-I99F (antibody, name in Kabat numbering, V domains shown)
VH: B1 VH with I103F, D105V
VL: B1 VL
notes: IgG1 kappa
B29: SA301a HC-N100bS (antibody, name in Kabat numbering, V domains shown)
VH: B1 VH with D105V, N106S
VL: B1 VL
notes: IgG1 kappa
B30: SA301a HC-V100aS (antibody, name in Kabat numbering, V domains shown)
VH: B1 VH with D105S
VL: B1 VL
notes: IgG1 kappa
B31: SA301a HC-V100aL (antibody, name in Kabat numbering, V domains shown)
VH: B1 VH with D105L
VL: B1 VL
notes: IgG1 kappa
B32: SA301a HC-I99S (antibody, name in Kabat numbering, V domains shown)
VH: B1 VH with I103S, D105V
VL: B1 VL
notes: IgG1 kappa
B33: SA301a HC-I99M (antibody, name in Kabat numbering, V domains shown)
VH: B1 VH with I103M, D105V
VL: B1 VL
notes: IgG1 kappa
B34: SA301a HC-V100aQ (antibody, name in Kabat numbering, V domains shown)
VH: B1 VH with D105Q
VL: B1 VL
notes: IgG1 kappa
B35: SA301a HC-I99H (antibody, name in Kabat numbering, V domains shown)
VH: B1 VH with I103H, D105V
VL: B1 VL
notes: IgG1 kappa
B36: SA301a HC-N100bH (antibody, name in Kabat numbering, V domains shown)
VH: B1 VH with D105V, N106H
VL: B1 VL
notes: IgG1 kappa
B37: SA301a HC-V100aE (antibody, name in Kabat numbering, V domains shown)
VH: B1 VH with D105E
VL: B1 VL
notes: IgG1 kappa
B38: SA301a HC-V100aP (antibody, name in Kabat numbering, V domains shown)
VH: B1 VH with D105P
VL: B1 VL
notes: IgG1 kappa
B39: SA301a HC-N100bD (antibody, name in Kabat numbering, V domains shown)
VH: B1 VH with D105V, N106D
VL: B1 VL
notes: IgG1 kappa
B40: SA301a HC-I99N (antibody, name in Kabat numbering, V domains shown)
VH: B1 VH with I103N, D105V
VL: B1 VL
notes: IgG1 kappa
B41: SA301a HC-I99G (antibody, name in Kabat numbering, V domains shown)
VH: B1 VH with I103G, D105V
VL: B1 VL
notes: IgG1 kappa

Molecular target: T1, human IL-18BP
Test: BLI, apparent KD

Binder	Kd
B1	4.99 nM
B2	0.72 nM
B3	1.08 nM
B4	0.56 nM
B5	0.51 nM
B6	1.06 nM
B7	1.3 nM
B8	2.07 nM
B9	0.63 nM
B10	1.32 nM
B11	0.55 nM
B12	1.59 nM
B13	0.9 nM
B14	1.88 nM
B15	0.1 nM
B16	0.94 nM
B17	0.25 nM
B18	0.19 nM
B19	0.8 nM
B20	0.41 nM
B21	27.7 nM

Binder	Kd
B22	0.46 nM
B23	0.09 nM
B24	0.27 nM
B25	2.16 nM
B26	0.68 nM
B27	0.05 nM
B28	0.64 nM
B29	0.49 nM
B30	0.28 nM
B31	2.54 nM
B32	0.56 nM
B33	0.21 nM
B34	0.45 nM
B35	0.61 nM
B36	0.69 nM
B37	0.51 nM
B38	0.49 nM
B39	2.3 nM
B40	0.55 nM
B41	1.04 nM

Molecular target: T2, cynomolgus IL-18BP
Test: BLI, apparent KD

Binder	Kd
B1	0.36 nM
B2	3.27 nM
B3	4.48 nM
B4	3.65 nM
B5	0.48 nM
B6	1.41 nM
B7	1.1 nM
B8	2.28 nM
B9	2.4 nM
B10	2.06 nM
B11	0.92 nM
B12	2.55 nM
B13	3.59 nM
B14	3.58 nM
B15	0.26 nM
B16	1.02 nM
B17	0.44 nM
B18	0.08 nM
B19	0.22 nM
B20	0.06 nM
B21	0.58 nM

Binder	Kd
B22	0.69 nM
B23	0.25 nM
B24	0.06 nM
B25	1.16 nM
B26	0.11 nM
B27	0.33 nM
B28	0.97 nM
B29	0.09 nM
B30	0.53 nM
B31	0.81 nM
B32	0.53 nM
B33	0.37 nM
B34	0.1 nM
B35	0.83 nM
B36	1.03 nM
B37	0.22 nM
B38	0.15 nM
B39	0.96 nM
B40	0.66 nM
B41	0.67 nM
